{
  "source": "paper PMC3853416",
  "about": "“Structural and functional characterisation of the methionine adenosyltransferase from Thermococcus kodakarensis” (BMC Structural Biology, 2013)",
  "key": {"[1]": {"substrate": "CSCC[C@H](N)C(=O)O", "test": "HPLC (SCX column) detection of SAM formed", "type": "biochemical, Thermococcus kodakarensis", "conditions": "co-substrate ATP (10 mM in standard assay), 0.1 M Tris-HCl, 0.02 M MgCl2, 0.2 M KCl, pH 8.0, 37 °C", "source_text": "(§1) HPLC (SCX column) detection of SAM formed on TkMAT"}, "[2]": {"substrate": "Nc1ncnc2c1ncn2[C@@H]1O[C@H](COP(=O)(O)OP(=O)(O)OP(=O)(O)O)[C@@H](O)[C@H]1O", "test": "HPLC (SCX column) detection of SAM formed", "type": "biochemical, Thermococcus kodakarensis", "conditions": "co-substrate L-methionine (10 mM in standard assay), 0.1 M Tris-HCl, 0.02 M MgCl2, 0.2 M KCl, pH 8.0, 37 °C", "source_text": "as §1"}, "[3]": {"molecular_target": "the molecule itself", "test": "SEC; Superdex 200 prep grade, XK 16/70 column; 2 mL of 5 mg/mL protein; 40 mM Tris-HCl, 150 mM NaCl, pH 8.0; 1 mL/min; column calibrated with proteins of known size"}},
  "data": [
    {"protein": "methionine adenosyltransferase from Thermococcus kodakarensis (enzyme, UniProt Q5JF22 1-405, looked up, methionine adenosyltransferase (S-adenosylmethionine synthase) of Thermococcus kodakarensis, gene cloned from genomic DNA into pET28a(+); the printed gene length (1155 bp) and primers may not fit this gene; Homodimer in solution by size exclusion chromatography; No removal of the His-tag is described; also called TkMAT; MAT) MAGKVRNIVVEELVRTPVEMQKVELVERKGIGHPDSIADGIAEAVSRALSREYVKRYGIILHHNTDQVEVVGGRAYPQFGGGEVIKPIYILLSGRAVEMVDREFFPVHEIALKAAKDYLRKAVRHLDLEHHVIIDSRIGQGSVDLVGVFNKAKKNPIPLANDTSFGVGYAPLSETEKIVLETEKYLNSDEFKKKYPAVGEDIKVMGLRKGDEIDLTIAAAIVDSEVDNPDDYMAVKEAIYEAAKGIVESHTERPTNIYVNTADDPKEGIYYITVTGTSAEAGDDGSVGRGNRVNGLITPNRHMSMEAAAGKNPVSHVGKIYNILSMLIANDIAEQVEGVEEVYVRILSQIGKPIDEPLVASVQIIPKKGYSIDVLQKPAYEIADEWLANITKIQKMILEDKVNVF", "values": [
      {"measurement": "Km", "setting": "[1]", "result": "0.31 ± 0.07", "unit": "mM"},
      {"measurement": "Km", "setting": "[2]", "result": "6.54 ± 2.49", "unit": "mM"},
      {"measurement": "stoichiometry N", "setting": "[3]", "result": 2}
    ]}
  ]
}
